Assay results published in patent EP4580670A2.

Target: CH848 day 949 SOSIP Env trimer (soluble SOSIP trimer derived from a virus isolated from the CH848 individual at day 949 post infection) (HIV-1)
Assay: method not stated; affinities shown in Figure 1B; reference DH270 UCA

DH270.I5 Fab
fold improvement of Env binding affinity relative to the UCA: 8 fold
